Entries after “also recorded” stand apart in the source; their conditions may differ.
T1: endogenous PTP1B under reducing conditions (Homo sapiens, UniProt P18031)
T1 construct: endogenous in cells; host or cells: 293T cells (transfected only with the scFv intrabody)
T1 sequence (P18031 1-435): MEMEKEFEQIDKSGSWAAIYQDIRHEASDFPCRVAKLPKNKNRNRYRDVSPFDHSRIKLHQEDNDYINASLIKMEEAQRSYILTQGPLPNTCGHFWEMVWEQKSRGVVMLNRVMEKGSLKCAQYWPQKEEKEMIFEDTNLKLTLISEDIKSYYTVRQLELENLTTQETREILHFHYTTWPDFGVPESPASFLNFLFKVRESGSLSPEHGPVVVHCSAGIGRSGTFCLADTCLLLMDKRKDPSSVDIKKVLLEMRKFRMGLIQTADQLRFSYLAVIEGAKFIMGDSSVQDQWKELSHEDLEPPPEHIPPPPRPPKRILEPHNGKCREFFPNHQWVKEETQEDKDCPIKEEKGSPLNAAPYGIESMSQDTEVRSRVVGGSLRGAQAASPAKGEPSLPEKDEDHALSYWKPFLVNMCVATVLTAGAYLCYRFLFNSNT

T2: endogenous PTP1B-OX (Homo sapiens, UniProt P18031)
T2 construct: endogenous in cells; host or cells: 293T cells (transfected only with the scFv intrabody)
T2 sequence (P18031 1-435): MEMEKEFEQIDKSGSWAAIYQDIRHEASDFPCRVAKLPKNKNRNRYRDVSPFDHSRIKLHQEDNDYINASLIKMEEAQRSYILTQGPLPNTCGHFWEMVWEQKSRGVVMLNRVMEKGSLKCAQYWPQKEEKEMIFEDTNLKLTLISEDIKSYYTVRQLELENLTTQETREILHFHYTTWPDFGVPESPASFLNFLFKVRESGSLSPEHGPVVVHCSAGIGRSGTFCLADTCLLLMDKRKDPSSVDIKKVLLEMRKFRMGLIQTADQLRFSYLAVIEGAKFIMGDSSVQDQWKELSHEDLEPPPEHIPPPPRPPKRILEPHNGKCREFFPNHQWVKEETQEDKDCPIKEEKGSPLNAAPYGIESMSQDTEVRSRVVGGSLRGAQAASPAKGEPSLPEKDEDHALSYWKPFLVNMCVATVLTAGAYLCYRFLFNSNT


Assays:
[1] = target: T1, endogenous PTP1B under reducing conditions; assay: Intrabody interaction in 293T cells under reducing condition (NAC, TCEP) (Ni-NTA pull down / immunoprecipitation); format: cell-based; settings: 20 mM NAC, lysis buffer with 2 mM TCEP, FIGS. 11, 12
Experimental: (§1) One of the positive candidate scFvs (scFv45) was cloned in pcDNA3.2/V5-GW/D-TOPO expression vector and transiently expressed in mammalian cells as stable intracellular antibody (aka intrabody) (FIG. 10). To detect PTP1B-OX and scFv45 interaction in mammalian cells, scFv45 was overexpressed in 293T cells as described herein (See Example 4) and 48 hours post transfection the cells were serum-starved for 16 hours in growth medium (DMEM, low glucose) without serum (FBS), then incubated with 1 mM H2O2 (in growth medium without serum) for 5 minutes at 37° C. or treated with 20 mM NAC (in growth medium without serum) for 1 hour at 37° C. Cells treated with H2O2 were washed twice with cold (4° C.) PBS and lysed in lysis buffer (25 mM HEPES, pH 7.4, 150 mM NaCl, 0.25% Deoxychloate, 1% TritonX-100, 25 mM NaF, 10 mM MgCl2, 1 mM EDTA, 10% Glycerol, 0.5 mM PMSF, 10 mM Benzamidine, protease inhibitor cocktail). Cells treated with NAC were lysed with lysis buffer containing 2 mM TCEP to ensure a post-lysis reducing environment. Interaction between PTP1B and intrabody45 were tested by pulling down the protein complex from 1 mg of total cell lysate with Ni-NTA agarose or by immunoprecipitating PTP with anti-PTP1B (FG6). For the pull down experiment, Ni-NTA agarose beads were incubated with the lysates (both oxidized and reduced) at 4° C. Protein complex bound to the Ni-NTA agarose beads was pulled down and washed three times; first with lysis buffer containing 20 mM imidazole followed by two more washes with wash buffer (PBS, pH 7.4, 20 mM imidazole, 0.05% BSA, 0.05% Tween-20 and protease inhibitors). Applicant used 20 mM imidazole in the wash buffer to reduce the non-specific binding of proteins with the Ni-NTA agarose beads. The complex was eluted with wash buffer containing 500 mM imidazole with gentle shaking at 4° C. and the eluate was mixed with SDS sample buffer with DTT. For the immunoprecipitation experiments, 1 mg of total cell lystates (both oxidized and reduced) was incubated with anti-PTP1B antibody (FG6) at 4° C. The interacting protein complex was immunoprecipitated after incubating the lysate-antibody mixture with protein A/G Sepharose at 4° C. After immunoprecipitation, Sepharose beads were washed three times; first with lysis buffer followed by two more washes with wash buffer (PBS, pH 7.4, 0.05% BSA, 0.05% Tween-20 and protease inhibitors). The Sepharose beads were then heated at 90° C. in 2×SDS sample buffer with DTT. Proteins from the pulled down or immunoprecipitated complex were separated by SDS-PAGE. PTP was detected with anti-PTP1B antibody (FG6) and the intrabodies were detected with anti-HA (3F10)-HRP antibody [anti-HA (3F10)-HRP, Roche] by immunoblotting.
In the initial in vitro phosphatase screening assay using reversibly oxidized (with H2O2) recombinant PTP1B, Applicant found four different PTP1B-OX specific scFvs (scFv45, scFv57, scFv64 and scFv106) from the initial pool of 12 different scFvs. […] Applicant has also shown that scFv45, expressed as an intrabody in mammalian cells, can bind to endogenous PTP1B-OX but not endogenous PTP under reducing conditions. Further assessment was carried out to identify additional PTP1B-OX-specific intrabodies. Additional scFvs have been subcloned in pcDNA3.2/V5-GW/D-TOPO mammalian expression vector (FIG. 10) from their respective phagemid constructs. […]

[2] = target: T2, endogenous PTP1B-OX; assay: Intrabody interaction in 293T cells treated with H2O2 (Ni-NTA pull down / anti-PTP1B immunoprecipitation); format: cell-based; settings: 1 mM H2O2 5 minutes
Experimental: as §1
In the initial in vitro phosphatase screening assay using reversibly oxidized (with H2O2) recombinant PTP1B, Applicant found four different PTP1B-OX specific scFvs (scFv45, scFv57, scFv64 and scFv106) from the initial pool of 12 different scFvs. […] Applicant has also shown that scFv45, expressed as an intrabody in mammalian cells, can bind to endogenous PTP1B-OX but not endogenous PTP under reducing conditions. Further assessment was carried out to identify additional PTP1B-OX-specific intrabodies. Additional scFvs have been subcloned in pcDNA3.2/V5-GW/D-TOPO mammalian expression vector (FIG. 10) from their respective phagemid constructs. After transient overexpression of these scFvs as intrabodies in 293T cells, the interaction between endogenous PTP1B and these intrabodies in both H2O2-treated cells and cells was observed under reducing condition (treated with NAC and lysed with lysis buffer containing TCEP). […] All can be used in the methods and compositions described herein. Additional scFvs, such as some or all of the 137 selected individual scFvs from the library, can be similarly tested by in vitro screening and/or by binding assay in mammalian cells.

Molecule	binding of intrabody to endogenous PTP1B under reducing conditions [1]	binding of intrabody to endogenous PTP1B-OX ([2]; FIGS. 11, 12)	binding of intrabody to endogenous PTP1B-OX ([2]; FIGS. 11, 12, listed as scFv 136)
scFv136: additional scFv, SEQ ID NO: 153 and 160 (protein) scFv: MKKTAIAIAVALAGFATVAQAALTQPSSVSANPGETVKITCSGGSYSYGWYQQKSPGSAPVTVIYSSDKRPSDIPSRFSGSKSGSTSTLTITGVQAEDEAVYYCGSRDSNYVGIFGAGTTLTVLGQSSRSSTVTLDESGGGLQTPGGALSLVCKASGFTFSSYEMQWVRQAPGKGLEFVAAISSDGSYTNYGAAVQGRATISRDNGQSTVRLQLSNLRAEDTATYYCARSPGGYTWWPGAAGGIDAWGHGTEVIVSSTSGQAGQHHHHHHGAYPYDVPDYAS	not in the presence of NAC and TCEP	co-pulldown of PTP1B-OX in the presence of H2O2	bound weakly to PTP1B-OX
scFv102: scFv, SEQ ID NO: 130 and 162 (protein) scFv: MKKTAIAIAVALAGFATVAQAALTQPSSVSANPGETVKITCSGGSGSYGWYQQESPGSAPVTVIYYNDKRPSDIPSRFSGSASGSTATLTIAGVRAEDEAVYFCGSWDSSTSAGIFGAGTALTVLGQSSRSSAVTLDESGGGLQTPGGGLSLVCKASGFSSSHGMGWMRQAPGKGLEFVAGIRSDGSSTAYGAAVDGRATITRDDGQSTVTLQLNNLRAEDTATYFCAKTNSYNSAGIIDAWGHGTEVIVSSTSGQAGQHHHHHHGAYPYDVPDYAS	not in the presence of NAC and TCEP	bound to endogenous PTP1B-OX strongly; also recorded: co-pulldown of PTP1B-OX in the presence of H2O2	

— patent publication US9074002B2, “PTP1B inhibitors” (Cold Spring Harbor Laboratory, priority 2009, dated 2015)
